Tests used:
Assay in all cases: biochemical
Assay type in all cases: biochemical
[1] = target: 266 human kinases (Homo sapiens, UniProt O96013); conditions: PAK4(h); 100 μM
Outline: (§1)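 Radiometric filter-binding format: a positively charged substrate takes up radiolabelled phosphate from ATP unless the kinase is inhibited, then is captured on a negatively charged filter membrane. Counts from scintillation are expressed relative to a 100% activity control.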

[2] = target: 266 human kinases (Homo sapiens, UniProt P00533); conditions: EGFR(h); 100 μM
Outline: as §1

[3] = target: 266 human kinases (Homo sapiens, UniProt P43405); conditions: Syk(h); 100 μM
Outline: as §1

[4] = target: 266 human kinases (Homo sapiens, UniProt P49761); conditions: CLK3(h); 100 μM
Outline: as §1

[5] = target: 266 human kinases (Homo sapiens, UniProt P53778); conditions: SAPK3(h); 100 μM
Outline: as §1

[6] = target: T1, 266 human kinases (Homo sapiens, UniProt P54762); conditions: EphB1(h); 100 μM
T1 sequence (P54762 18-984): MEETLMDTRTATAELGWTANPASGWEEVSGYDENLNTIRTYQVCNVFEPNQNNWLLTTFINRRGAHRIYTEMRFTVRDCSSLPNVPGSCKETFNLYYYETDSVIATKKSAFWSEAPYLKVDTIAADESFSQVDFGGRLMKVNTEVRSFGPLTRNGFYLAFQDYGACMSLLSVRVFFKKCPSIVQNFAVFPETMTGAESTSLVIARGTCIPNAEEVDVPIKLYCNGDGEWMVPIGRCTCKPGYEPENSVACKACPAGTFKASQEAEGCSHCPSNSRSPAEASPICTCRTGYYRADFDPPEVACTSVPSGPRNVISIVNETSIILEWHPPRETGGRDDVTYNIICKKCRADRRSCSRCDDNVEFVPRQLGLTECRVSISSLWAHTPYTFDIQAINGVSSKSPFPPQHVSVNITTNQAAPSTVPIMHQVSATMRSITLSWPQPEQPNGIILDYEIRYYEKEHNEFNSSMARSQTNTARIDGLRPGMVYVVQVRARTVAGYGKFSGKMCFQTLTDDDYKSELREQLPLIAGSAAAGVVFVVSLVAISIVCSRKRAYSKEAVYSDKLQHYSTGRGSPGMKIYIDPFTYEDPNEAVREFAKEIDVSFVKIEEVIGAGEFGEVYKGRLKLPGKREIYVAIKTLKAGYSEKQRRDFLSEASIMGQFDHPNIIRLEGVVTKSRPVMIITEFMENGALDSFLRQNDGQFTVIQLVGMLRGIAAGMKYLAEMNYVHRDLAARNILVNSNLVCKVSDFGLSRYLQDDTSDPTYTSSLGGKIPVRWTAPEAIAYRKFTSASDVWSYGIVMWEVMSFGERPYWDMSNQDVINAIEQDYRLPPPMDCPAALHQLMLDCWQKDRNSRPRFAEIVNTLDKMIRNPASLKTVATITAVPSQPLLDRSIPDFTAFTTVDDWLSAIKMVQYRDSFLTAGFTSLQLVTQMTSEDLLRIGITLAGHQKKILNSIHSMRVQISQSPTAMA
Outline: as §1

[7] = target: T2, 266 human kinases (Homo sapiens, UniProt Q12851); conditions: GCK(h); 100 μM
T2 sequence (Q12851 1-820): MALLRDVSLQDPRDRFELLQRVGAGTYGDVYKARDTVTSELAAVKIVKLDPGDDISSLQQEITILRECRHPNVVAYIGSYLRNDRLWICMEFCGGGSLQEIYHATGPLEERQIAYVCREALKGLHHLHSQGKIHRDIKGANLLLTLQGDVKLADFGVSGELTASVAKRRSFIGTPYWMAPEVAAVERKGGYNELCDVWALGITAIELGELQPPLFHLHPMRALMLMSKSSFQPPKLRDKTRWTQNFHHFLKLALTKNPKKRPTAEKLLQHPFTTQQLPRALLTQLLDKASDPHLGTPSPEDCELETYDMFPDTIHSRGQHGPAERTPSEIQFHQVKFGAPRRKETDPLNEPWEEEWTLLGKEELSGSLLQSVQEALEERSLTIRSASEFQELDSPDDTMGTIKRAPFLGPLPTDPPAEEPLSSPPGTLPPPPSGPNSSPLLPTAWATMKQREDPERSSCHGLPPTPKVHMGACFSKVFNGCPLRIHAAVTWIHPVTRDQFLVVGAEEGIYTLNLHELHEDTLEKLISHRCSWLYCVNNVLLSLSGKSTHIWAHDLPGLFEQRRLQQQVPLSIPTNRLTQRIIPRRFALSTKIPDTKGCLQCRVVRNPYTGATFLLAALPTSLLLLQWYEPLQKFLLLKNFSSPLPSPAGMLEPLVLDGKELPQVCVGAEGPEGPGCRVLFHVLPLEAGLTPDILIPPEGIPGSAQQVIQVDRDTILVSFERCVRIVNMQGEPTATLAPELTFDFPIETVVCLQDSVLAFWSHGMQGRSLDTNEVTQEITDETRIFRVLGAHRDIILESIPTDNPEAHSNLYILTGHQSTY
Outline: as §1

[8] = target: 266 human kinases (Homo sapiens, UniProt Q14289); conditions: Pyk2 (h); 100 μM
Outline: as §1

[9] = target: 266 human kinases (Homo sapiens, UniProt Q9UM73); conditions: ALK(h); 100 μM
Outline: as §1

266 human kinases (Homo sapiens, UniProt O96013), sequence (O96013 whole entry): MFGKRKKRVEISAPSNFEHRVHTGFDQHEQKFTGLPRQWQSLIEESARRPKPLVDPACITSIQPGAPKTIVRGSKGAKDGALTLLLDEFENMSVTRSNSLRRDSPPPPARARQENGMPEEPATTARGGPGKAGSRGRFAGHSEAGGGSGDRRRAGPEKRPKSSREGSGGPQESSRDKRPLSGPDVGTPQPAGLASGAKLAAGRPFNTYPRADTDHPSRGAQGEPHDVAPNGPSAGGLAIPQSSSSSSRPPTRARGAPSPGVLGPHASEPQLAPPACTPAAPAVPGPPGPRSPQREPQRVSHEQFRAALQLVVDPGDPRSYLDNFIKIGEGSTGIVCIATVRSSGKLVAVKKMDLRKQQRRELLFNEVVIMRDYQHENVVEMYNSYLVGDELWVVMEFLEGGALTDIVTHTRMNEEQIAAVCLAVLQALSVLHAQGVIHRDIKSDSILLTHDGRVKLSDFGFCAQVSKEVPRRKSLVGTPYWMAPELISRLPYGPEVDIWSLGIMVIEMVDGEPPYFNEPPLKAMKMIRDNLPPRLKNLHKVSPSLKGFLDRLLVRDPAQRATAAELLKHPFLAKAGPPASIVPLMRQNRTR
266 human kinases (Homo sapiens, UniProt P49761), sequence (P49761 whole entry): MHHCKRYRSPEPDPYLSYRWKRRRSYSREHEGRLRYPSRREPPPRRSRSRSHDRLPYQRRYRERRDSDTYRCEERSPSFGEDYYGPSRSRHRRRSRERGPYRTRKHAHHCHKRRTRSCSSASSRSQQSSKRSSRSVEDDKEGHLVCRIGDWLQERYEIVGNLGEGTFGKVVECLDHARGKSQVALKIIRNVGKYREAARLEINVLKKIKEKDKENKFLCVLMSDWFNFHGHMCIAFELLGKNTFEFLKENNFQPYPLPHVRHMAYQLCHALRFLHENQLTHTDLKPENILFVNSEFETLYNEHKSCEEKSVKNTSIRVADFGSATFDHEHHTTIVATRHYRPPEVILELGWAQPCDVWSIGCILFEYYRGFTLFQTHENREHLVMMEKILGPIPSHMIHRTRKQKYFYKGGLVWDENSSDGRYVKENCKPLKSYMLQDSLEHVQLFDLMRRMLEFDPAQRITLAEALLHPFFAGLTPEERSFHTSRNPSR
266 human kinases (Homo sapiens, UniProt Q9UM73), sequence (Q9UM73 19-1620): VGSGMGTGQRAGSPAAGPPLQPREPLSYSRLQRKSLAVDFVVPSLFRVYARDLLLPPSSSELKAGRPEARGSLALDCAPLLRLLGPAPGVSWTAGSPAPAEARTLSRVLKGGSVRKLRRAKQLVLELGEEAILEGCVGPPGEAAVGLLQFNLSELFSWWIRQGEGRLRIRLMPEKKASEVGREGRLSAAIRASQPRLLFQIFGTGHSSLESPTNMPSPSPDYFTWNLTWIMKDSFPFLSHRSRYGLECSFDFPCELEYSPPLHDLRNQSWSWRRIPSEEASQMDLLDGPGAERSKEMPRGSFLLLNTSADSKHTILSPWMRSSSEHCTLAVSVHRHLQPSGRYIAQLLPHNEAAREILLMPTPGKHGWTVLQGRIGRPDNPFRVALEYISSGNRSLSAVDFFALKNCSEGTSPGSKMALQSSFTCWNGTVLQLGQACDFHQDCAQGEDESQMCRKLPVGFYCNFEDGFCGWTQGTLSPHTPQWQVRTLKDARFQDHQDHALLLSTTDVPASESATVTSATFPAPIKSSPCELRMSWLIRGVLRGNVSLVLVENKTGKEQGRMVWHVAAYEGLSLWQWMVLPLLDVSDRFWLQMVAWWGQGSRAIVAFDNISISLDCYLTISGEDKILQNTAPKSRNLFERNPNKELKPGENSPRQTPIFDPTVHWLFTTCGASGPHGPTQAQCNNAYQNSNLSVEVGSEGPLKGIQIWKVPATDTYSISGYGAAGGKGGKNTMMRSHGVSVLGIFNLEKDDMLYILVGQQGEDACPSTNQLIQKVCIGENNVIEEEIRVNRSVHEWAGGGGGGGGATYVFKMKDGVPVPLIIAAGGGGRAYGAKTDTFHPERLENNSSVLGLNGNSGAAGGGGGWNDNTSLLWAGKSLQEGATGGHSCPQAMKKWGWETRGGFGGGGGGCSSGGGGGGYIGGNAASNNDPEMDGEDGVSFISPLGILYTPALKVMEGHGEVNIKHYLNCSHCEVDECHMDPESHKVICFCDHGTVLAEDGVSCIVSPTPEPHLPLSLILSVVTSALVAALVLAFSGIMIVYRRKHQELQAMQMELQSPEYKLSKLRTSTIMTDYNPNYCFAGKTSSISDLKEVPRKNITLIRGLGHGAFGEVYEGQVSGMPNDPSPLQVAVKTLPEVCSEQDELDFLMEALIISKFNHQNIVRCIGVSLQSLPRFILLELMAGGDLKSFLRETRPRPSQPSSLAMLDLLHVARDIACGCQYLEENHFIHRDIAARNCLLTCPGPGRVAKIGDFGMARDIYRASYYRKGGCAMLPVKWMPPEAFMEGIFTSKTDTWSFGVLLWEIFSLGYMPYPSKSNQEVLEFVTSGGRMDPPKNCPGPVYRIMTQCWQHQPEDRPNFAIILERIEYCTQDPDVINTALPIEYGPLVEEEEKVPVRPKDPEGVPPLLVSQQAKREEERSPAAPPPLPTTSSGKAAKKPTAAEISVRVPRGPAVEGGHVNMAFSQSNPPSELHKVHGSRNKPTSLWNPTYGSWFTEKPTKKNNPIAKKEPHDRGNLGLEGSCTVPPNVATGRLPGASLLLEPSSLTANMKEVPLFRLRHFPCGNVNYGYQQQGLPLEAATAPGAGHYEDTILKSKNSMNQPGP
266 human kinases (Homo sapiens, UniProt Q14289), sequence (Q14289 whole entry): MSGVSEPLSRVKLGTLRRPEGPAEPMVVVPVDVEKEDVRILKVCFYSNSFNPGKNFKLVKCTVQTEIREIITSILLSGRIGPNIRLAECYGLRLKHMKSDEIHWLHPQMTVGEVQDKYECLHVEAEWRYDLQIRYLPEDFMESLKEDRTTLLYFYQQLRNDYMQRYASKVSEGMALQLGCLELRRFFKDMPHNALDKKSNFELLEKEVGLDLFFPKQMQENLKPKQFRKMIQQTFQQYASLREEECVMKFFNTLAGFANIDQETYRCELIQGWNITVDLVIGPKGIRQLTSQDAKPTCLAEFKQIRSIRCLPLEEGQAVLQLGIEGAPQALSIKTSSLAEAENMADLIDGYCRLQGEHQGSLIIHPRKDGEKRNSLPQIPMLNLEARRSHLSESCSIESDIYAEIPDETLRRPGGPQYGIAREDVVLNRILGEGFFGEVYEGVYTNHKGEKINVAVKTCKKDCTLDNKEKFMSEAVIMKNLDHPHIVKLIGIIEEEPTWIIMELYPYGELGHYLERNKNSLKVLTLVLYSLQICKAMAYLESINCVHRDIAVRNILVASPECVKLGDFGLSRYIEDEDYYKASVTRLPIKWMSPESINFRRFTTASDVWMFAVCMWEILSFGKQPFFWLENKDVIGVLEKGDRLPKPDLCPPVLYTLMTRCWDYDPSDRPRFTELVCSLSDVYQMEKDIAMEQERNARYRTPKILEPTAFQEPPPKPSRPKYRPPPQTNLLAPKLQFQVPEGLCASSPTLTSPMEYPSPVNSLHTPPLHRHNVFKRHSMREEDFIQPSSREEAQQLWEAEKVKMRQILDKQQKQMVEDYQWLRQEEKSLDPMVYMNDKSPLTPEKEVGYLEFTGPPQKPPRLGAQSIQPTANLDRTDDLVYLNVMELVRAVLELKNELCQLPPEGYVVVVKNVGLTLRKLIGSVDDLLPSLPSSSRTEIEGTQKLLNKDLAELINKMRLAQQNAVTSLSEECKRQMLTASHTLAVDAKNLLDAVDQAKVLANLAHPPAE
266 human kinases (Homo sapiens, UniProt P53778), sequence (P53778 whole entry): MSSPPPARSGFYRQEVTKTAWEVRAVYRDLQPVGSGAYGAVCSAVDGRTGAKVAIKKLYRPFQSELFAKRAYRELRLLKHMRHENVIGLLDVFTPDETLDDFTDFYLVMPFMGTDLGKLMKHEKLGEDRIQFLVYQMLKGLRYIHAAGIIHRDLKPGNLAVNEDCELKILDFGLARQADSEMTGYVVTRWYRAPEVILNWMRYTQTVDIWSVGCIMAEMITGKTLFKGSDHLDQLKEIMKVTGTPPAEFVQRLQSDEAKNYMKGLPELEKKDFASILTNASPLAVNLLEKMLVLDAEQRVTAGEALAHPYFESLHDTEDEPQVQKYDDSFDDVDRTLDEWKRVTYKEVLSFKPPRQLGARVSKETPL

Sequence | % activity [1] [%] | % activity [2] [%] | % activity [3] [%] | % activity [4] [%] | % activity [5] [%] | % activity [6] [%] | % activity [7] [%] | % activity [8] [%] | % activity [9] [%]
YARAAARQARAKALNRQLGVA (mammal) [MMI-0200] | 98 | 83 | 36 | 76 | 97 | 95 | 99 | 127 | 95
HRRIKAWLKKIKALARQLGVAA (mammal) [MMI-0500] | 86 | −1 | 5 | 76 | 24 | 37 | 30 | 46 | 12
